In this test the target is streptavidin (recombinant, with Ni-affinity tag) (UniProt P22629). In words: PLISA on immobilized streptavidin, binding through biotin.
streptavidin (recombinant, with Ni-affinity tag), sequence (P22629 37-163 limits assumed): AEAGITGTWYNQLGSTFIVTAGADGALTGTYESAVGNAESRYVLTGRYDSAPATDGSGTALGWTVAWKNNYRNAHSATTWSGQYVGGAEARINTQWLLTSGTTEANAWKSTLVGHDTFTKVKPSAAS

With “biotinylated form of M13LuxABElink-SompbioVII3 (luciferase-encoding M13 phage exposing a biotinylated BirA-substrate polypeptide as part of capsid protein VII) (from UniProt P69533 1-33)”, the smallest amount of streptavidin detected (pg loaded in the well) came out at 1.

The record behind these values is US20170067044A1.
